Data reported in US20260193623A1 (METAGENOMI, published 2026).

Molecular target: the molecule itself
Test: anti-HA immunoblot of lysates of transfected HEK293T cells; band at 2x the expected size (homodimer)
Description: FIGS. 35A-35C depict protein expression of MG153 GII derived RTs by immunoblots. Cells were transfected with plasmids containing the candidate RTs and protein expression was evaluated by immunoblot, detecting the HA peptide fused to the N termini of the RTs. All lanes were normalized to total protein concentration. White arrows point to bands at 2× the expected molecular size of the protein, which indicate protein dimers. Lanes not relevant for the described experiment in FIGS. 35A and 35B are covered by white boxes. FIG. 35C: Multiple sequence alignment of GII derived RT. The region shown corresponds to positions 196 through 201 of the alignment. The dimerization motif CAQQ (SEQ ID NO: 2267) is highlighted.
In order to understand protein expression and stability of the GII RTs in mammalian cells, immunoblots were performed. Briefly, transfected cells were lysed with RIPA lysis buffer supplemented with protease inhibitors (80 μL per well in a 24 well format). The lysate was centrifuged at 14,000 g for 10 min at 4° C. in order to remove insoluble aggregates. Proteins were quantified using BCA. […] Proteins were detected by using a rabbit HA antibody, using an HRP-based detection method. […] The expression of each protein was quantified and cDNA synthesis activity was normalized to total protein expression: seven MG153 RTs outperformed the TGIRT control (FIG. 36).

B1: MG153-4 (enzyme)
chain: MDTSSLMEQILSKENLNEAYLQVVRNKGAAGVDGMSVEELGPYLSENGENIREQMRTRKYKPQPVRRVEIPKPDGGVRNLGVPTVVDRFVQQAVAQVLSPIFEEQFHDHSYGFRPNRCAQQAVLKALEMMNDGHNWIVDIDLAKFFDTVDHDKLMTIFGRTIKDGDVISLVRKFLVSGVMIDDEYEDTIVGTPQGGNISPLLANIMLNELDKELEARGLDFVRYADDLIIMVGSRQAAERVMKSVTRFIENKLGLKVNAEKSRVDKPKGIKYLGFGFYFDSFAKGYKARPHMKAVEKFKEQMKKLTCRSWGVSNTYKVKKLNQLIRGWINYFKIGSMKNLCRKLDAHIRFRLRMCIWKQWKTPKNREKNLIKLGLPRYAAHGISYAKGYARVCRSWNLHISISKERLAKFGLISMEDYYAERRVTC
notes: Group II intron class C RT, expressed in HEK293T cells as a Flag-HA-MCP fusion (expected 67.6 kDa including the tag); not shown: N-terminal Flag-HA-MCP tag
binding result: binds

B2: MG153-9 (enzyme)
chain: MESYLTQDRAEPEAGCGANSVSDTEGDGRTVQHDLVEEVVSWSNLEAALKQVVSNRGAPGVDGMTVDELGPWLETNYSELAEKVRNGRYRPNPVRRKEIPKPNGGVRDLGIPTVVDRLLQQAVSQVLMPIYEPSFSDTSYGFRPGRSAHDAIQKAKEYLSEGFGYVVDLDLARFFDTLNQDYLMNILRERVRDKALLELIKRFLRSGVVLPNGLLRETREGSPQGGPLSPLLSNIYLDRFDKLLESRGLRFVRYADDCLVFVRTPRAGERVRESVTRYLEGTLRLRVNQEKTVVGRADQVKFLGFRLYRQKTVGATVHDSSLARFRKEVRRITKRNRGTSLGSVLTELKTFTRGWVGYFRIGLSKSRAEKLDGWIRQRVRQYIFKQWKTLRNRASQLVSLCPDYLRPRPGFTPYSWVRECRRAAFSRSYWKAVNYPVVKRALSNSYLAGLGLYSLSEQLEKWNKGV
notes: Group II intron class C RT, expressed in HEK293T cells as a Flag-HA-MCP fusion (expected 72 kDa including the tag); not shown: N-terminal Flag-HA-MCP tag
binding result: binds
